The target in the assay is T1, MGN (MEGANE), yeast two-hybrid fusion (mouse, UniProt Q7TS99 1-240).
T1 construct: The two Gal4 domains are alternatives: one fusion as bait (BD), another as prey (AD); also called Helt; BD-MGN; source: yeast two-hybrid fusion
T1 sequence (looked up): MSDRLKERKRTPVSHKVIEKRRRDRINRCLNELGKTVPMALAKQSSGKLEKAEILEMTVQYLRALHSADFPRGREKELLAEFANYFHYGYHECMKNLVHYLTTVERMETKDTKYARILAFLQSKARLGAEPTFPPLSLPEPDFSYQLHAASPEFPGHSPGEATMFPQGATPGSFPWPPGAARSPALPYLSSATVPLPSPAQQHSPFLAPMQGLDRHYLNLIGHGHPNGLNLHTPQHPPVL
Put plainly: two-hybrid; quantitative β-galactosidase assay on liquid cultures (X-gal; in parallel ONPG, absorbance at 420 nm), five independent transformants per pair, normalised against cell density and dilution. Particulars: partners not purified.

B1: MASH1, yeast two-hybrid fusion (natural protein, mouse, UniProt Q02067 1-231, looked up)
chain: MESSGKMESGAGQQPQPPQPFLPPAACFFATAAAAAAAAAAAAQSAQQQQPQAPPQQAPQLSPVADSQPSGGGHKSAAKQVKRQRSSSPELMRCKRRLNFSGFGYSLPQQQPAAVARRNERERNRVKLVNLGFATLREHVPNGAANKKMSKVETLRSAVEYIRALQQLLDEHDAVSAAFQAGVLSPTISPNYSNDLNSMAGSPVSSYSSDEGSYDPLSPEEQELLDFTNWF
notes: The two Gal4 domains are alternatives: one fusion as bait (BD), another as prey (AD); also called Ascl1; MASH1-AD; source: yeast two-hybrid fusion
Regarding B1, the “fold β-galactosidase activity (strength of interaction) over the MASH1/MASH1 homodimer” value is 4 fold and the “fold β-galactosidase activity (strength of interaction) over the MGN/MGN homodimer” value turned out to be 4.4 fold.

The values above are taken from article PMC4439124, “Hairy/Enhancer-of-Split MEGANE and Proneural MASH1 Factors Cooperate Synergistically in Midbrain GABAergic Neurogenesis” (PLoS ONE, 2015).
